Experimental data: the supplement of paper PMC7877785
± gives the uncertainty stated by the source.

Test: self-splicing fitness, log relative to wild type (ln ratio); higher = more splicing; Tetrahymena group I intron in knt gene, E. coli kanamycin selection, DiMSum; sequences stand for … in CUCUCU…GGAGGGAAAAGUUAUCAGGCAUGCACCUGGUAGCUAGUCUUUAAACCAAUAGAUUGCAUCGGUUUAAAAGGCAAGACCGUCAAAUUGCGGGAAAGGGGUCAACAGCCGUUCAGUACCAAGUCUCAGGGGAAACUUUGAGAUGGCCUUGCAAAGGGUAUGGUAAUAAGCUGACGGACAUGGUCCUAACCACGCAGCCAAGUCCUAAGUCAACAGAUCUUCUGUUGAUAUGGAUGCAGUUCACAGACUAAAUGUCGGUCGGGGAAGAUGUAUUCUUCUCAUAAGAUAUAGUCGGACCUCUCCUUAAUGGGAGCUAGCGGAUGAAGUGAUGCAACACUGGAGCCGCUGGGAACUAAUUUGUAUGCGAAAGUAUAUUGAUUAGUUUUGGAGUACUCGUGGUCG
Summary of the method: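 DiMSum derived fitness as the error-weighted combination of fold changes across replicates, kanamycin versus no kanamycin, normalised to wild type. E. coli BL21(DE3) held the library, which randomised all eight P1ex-region intron nucleotides within the knt kanamycin-resistance gene on pET-22b(+). Six replicate transformations grew overnight at 37°C or 30°C on LB agar with or without 25 μg/mL kanamycin, also containing 100 μg/mL carbenicillin, 50 μM IPTG and 0.2% rhamnose, and pooled colonies were amplicon-sequenced on an Illumina HiSeq 2500.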

Sequence	self-splicing fitness (ln) (30 °C)	self-splicing fitness (ln) (37 °C)
GUGAAGCAAUAUUACGUUGA	-1.56 ± 0.078	-0.398 ± 0.093
GUGCAGCAAUAUUACGACAU	-0.587 ± 0.013	-0.143 ± 0.032
GUGCAGCAAUAUUACGACCC	-0.76 ± 0.13	0.132 ± 0.18
GUGCAGCAAUAUUACGAGAU	-3.67 ± 0.2	-1.98 ± 0.19
GUGCAGCAAUAUUACGAGUU	-2.49 ± 0.15	-1.62 ± 0.15
GUGCAGCAAUAUUACGCCAA	-1.41 ± 0.14	-1.72 ± 0.14
GUGCAGCAAUAUUACGCUCG	-0.5 ± 0.091	-0.883 ± 0.13
GUGCAGCAAUAUUACGGGAA	-3.67 ± 0.25	-1.9 ± 0.13
GUGCAGCAAUAUUACGGGGG	-4.19 ± 0.23	-2.58 ± 0.18
GUGCAGCAAUAUUACGUAUU	-1.7 ± 0.1	-1.78 ± 0.12
GUGCAGCAAUAUUACGUUCA	0.191 ± 0.072	-0.181 ± 0.081
GUGGAGCAAUAUUACGAACU	-0.836 ± 0.28	-1.14 ± 0.42
GUGGAGCAAUAUUACGACAU	-2.402 ± 0.022	-1.48 ± 0.038
GUGGAGCAAUAUUACGAGUC		-2.24 ± 0.31
GUGGAGCAAUAUUACGCAAU	-1.83 ± 0.1	-1.25 ± 0.13
GUGGAGCAAUAUUACGCAUG	-3.81 ± 0.21	-1.8 ± 0.15
GUGGAGCAAUAUUACGCCGU	0.631 ± 0.42	-1.15 ± 0.37
GUGGAGCAAUAUUACGCGCG	-1.79 ± 0.25	-2.11 ± 0.31
GUGGAGCAAUAUUACGCUCC	-1.83 ± 0.35	
GUGGAGCAAUAUUACGGAUC	-1.1 ± 0.25	-0.583 ± 0.21
GUGGAGCAAUAUUACGGCCG	-3.44 ± 0.28	-2.03 ± 0.22
GUGGAGCAAUAUUACGGCGU	-1.29 ± 0.26	-0.557 ± 0.48
GUGGAGCAAUAUUACGGGAG	-3.74 ± 0.37	-1.8 ± 0.3
GUGGAGCAAUAUUACGGGCC		-0.665 ± 0.48
GUGGAGCAAUAUUACGGUCG	-4.21 ± 0.43	-1.5 ± 0.45

Sequence	self-splicing fitness (ln) (30 °C)	self-splicing fitness (ln) (37 °C)
GUGGAGCAAUAUUACGGUGC	-2.76 ± 0.24	-1.93 ± 0.25
GUGGAGCAAUAUUACGUCAU	-4.2 ± 0.32	-3.24 ± 0.33
GUGGAGCAAUAUUACGUCGU	-1.65 ± 0.21	-1.48 ± 0.26
GUGGAGCAAUAUUACGUGAA		-0.49 ± 0.28
GUGGAGCAAUAUUACGUUCG	-1.45 ± 0.2	-0.499 ± 0.25
GUGGAGCAAUAUUACGUUGG	-3.39 ± 0.28	-3.36 ± 0.43
GUGUAGCAAUAUUACGAAAA	-2.71 ± 0.4	-1.51 ± 0.29
GUGUAGCAAUAUUACGACGG	-3.88 ± 0.31	-0.904 ± 0.15
GUGUAGCAAUAUUACGACUC	-0.267 ± 0.15	-0.0849 ± 0.21
GUGUAGCAAUAUUACGAUAG	-3.84 ± 0.27	-0.946 ± 0.19
GUGUAGCAAUAUUACGAUUG	-4.18 ± 0.3	-2.18 ± 0.2
GUGUAGCAAUAUUACGCAAC		-0.636 ± 0.23
GUGUAGCAAUAUUACGCGGC	-2.8 ± 0.29	-0.745 ± 0.23
GUGUAGCAAUAUUACGCGUC	-3.17 ± 0.21	-0.598 ± 0.14
GUGUAGCAAUAUUACGGACG	-0.958 ± 0.14	-1.32 ± 0.17
GUGUAGCAAUAUUACGGAGG	-3.89 ± 0.29	-2.67 ± 0.22
GUGUAGCAAUAUUACGGUCU	-1.6 ± 0.2	0.619 ± 0.2
GUGUAGCAAUAUUACGGUGU	-2.26 ± 0.16	-0.0252 ± 0.14
GUGUAGCAAUAUUACGUAGA	-3.14 ± 0.25	-1.8 ± 0.36
GUGUAGCAAUAUUACGUCCA	-1.74 ± 0.38	-0.639 ± 0.39
GUGUAGCAAUAUUACGUGCC	-3.46 ± 0.35	-2.7 ± 0.32
GUGUAGCAAUAUUACGUUAC		-2.56 ± 0.35
GUUAAGCAAUAUUACGACAU	-0.0837 ± 0.013	0.118 ± 0.033
GUUAAGCAAUAUUACGACGU	-0.121 ± 0.059	0.426 ± 0.069
GUUAAGCAAUAUUACGACUU	0.183 ± 0.11	0.278 ± 0.13

Sequence	self-splicing fitness (ln) (30 °C)	self-splicing fitness (ln) (37 °C)
GUUAAGCAAUAUUACGAGGC	-3.2 ± 0.28	-1.34 ± 0.3
GUUAAGCAAUAUUACGAUAA	-1.48 ± 0.18	-0.923 ± 0.2
GUUAAGCAAUAUUACGAUUC	0.0872 ± 0.085	-0.608 ± 0.11
GUUAAGCAAUAUUACGCAGG	-3.11 ± 0.38	-2.47 ± 0.31
GUUAAGCAAUAUUACGCCGC	-3.02 ± 0.21	-2.03 ± 0.31
GUUAAGCAAUAUUACGCGUC	-3.23 ± 0.26	-1.96 ± 0.2
GUUAAGCAAUAUUACGCUGU	-2.62 ± 0.21	-1.78 ± 0.17
GUUAAGCAAUAUUACGGACG	-1.07 ± 0.12	-1.3 ± 0.14
GUUAAGCAAUAUUACGGAGA	-3.29 ± 0.26	-2.57 ± 0.25
GUUAAGCAAUAUUACGGCUA	0.289 ± 0.099	0.176 ± 0.1
GUUAAGCAAUAUUACGGGCG	-1.44 ± 0.1	-0.388 ± 0.11
GUUAAGCAAUAUUACGGGUA	-2.01 ± 0.14	-1.39 ± 0.12
GUUAAGCAAUAUUACGGGUG	-3.29 ± 0.15	-2.39 ± 0.14
GUUAAGCAAUAUUACGGUCC	-0.666 ± 0.12	0.191 ± 0.15
GUUAAGCAAUAUUACGGUCU	-2.3 ± 0.14	-0.0437 ± 0.12
GUUAAGCAAUAUUACGGUUA	-1.33 ± 0.096	-0.554 ± 0.096
GUUAAGCAAUAUUACGUCAG		-2.22 ± 0.4
GUUAAGCAAUAUUACGUGGC		-2.1 ± 0.33
GUUCAGCAAUAUUACGAAAA	-0.216 ± 0.13	0.45 ± 0.15
GUUCAGCAAUAUUACGAAUG	-0.469 ± 0.076	0.0253 ± 0.11
GUUCAGCAAUAUUACGACAC	-0.34 ± 0.15	0.897 ± 0.18
GUUCAGCAAUAUUACGACUA	-1.28 ± 0.17	-0.368 ± 0.15
GUUCAGCAAUAUUACGAUGC	-0.236 ± 0.17	0.2 ± 0.14
GUUCAGCAAUAUUACGCAGA	-1.72 ± 0.2	-1.3 ± 0.17
GUUCAGCAAUAUUACGCAGU	-1.18 ± 0.14	0.201 ± 0.22

Sequence	self-splicing fitness (ln) (30 °C)	self-splicing fitness (ln) (37 °C)
GUUCAGCAAUAUUACGCCGU	-1.57 ± 0.1	-0.339 ± 0.12
GUUCAGCAAUAUUACGCGAC	-3.9 ± 0.29	-1.22 ± 0.29
GUUCAGCAAUAUUACGCGCA	-1.04 ± 0.2	0.567 ± 0.21
GUUCAGCAAUAUUACGCUAA	-1.03 ± 0.2	0.184 ± 0.2
GUUCAGCAAUAUUACGCUCG	0.167 ± 0.12	0.0872 ± 0.15
GUUCAGCAAUAUUACGCUUA	-0.682 ± 0.12	-0.0254 ± 0.12
GUUCAGCAAUAUUACGCUUC	-0.641 ± 0.11	-0.661 ± 0.14
GUUCAGCAAUAUUACGGCAU	-0.334 ± 0.067	0.567 ± 0.072
GUUCAGCAAUAUUACGGGCC	-3.61 ± 0.2	-2.25 ± 0.2
GUUCAGCAAUAUUACGGGGG	-1.52 ± 0.13	-1.4 ± 0.16
GUUCAGCAAUAUUACGGUUA	-0.817 ± 0.098	-0.352 ± 0.082
GUUCAGCAAUAUUACGUAGU	-0.247 ± 0.11	0.369 ± 0.11
GUUCAGCAAUAUUACGUGCC	-2.59 ± 0.2	-1.19 ± 0.19
GUUCAGCAAUAUUACGUGGU	-1.03 ± 0.057	-0.621 ± 0.079
GUUCAGCAAUAUUACGUGUG	-0.881 ± 0.066	-0.806 ± 0.084
GUUCAGCAAUAUUACGUUUU	-0.661 ± 0.052	-0.216 ± 0.062
GUUGAGCAAUAUUACGAAUC	-1.91 ± 0.26	0.505 ± 0.25
GUUGAGCAAUAUUACGACAC	-0.129 ± 0.18	-0.362 ± 0.19
GUUGAGCAAUAUUACGAGAU	-2.7 ± 0.19	-2.81 ± 0.31
GUUGAGCAAUAUUACGAGCA	-2.68 ± 0.28	-1.71 ± 0.32
GUUGAGCAAUAUUACGAGCG		-1.37 ± 0.25
GUUGAGCAAUAUUACGAGGG	-2.7 ± 0.21	-2.67 ± 0.24
GUUGAGCAAUAUUACGAGUU		-2.56 ± 0.33
